Assay results published in publication PMC11633198, “Vibrio cholerae CsrA controls ToxR levels by increasing the stability and translation of toxR mRNA”.

Tests used:
[1] = molecular target: T1, CsrA (Vibrio cholerae, UniProt Q9KUH3 1-65); assay: EMSA; 0.1 nM RNA, 0-640 nM CsrA (Fig 3B); 1 nM RNA in Fig 3C; conditions: protein: recombinant; tags: N-terminal 6xHis removed by TEV protease; chain copies: 2; label: 3' biotin; two adjacent hairpins (mfold)
[2] = molecular target: T1, CsrA; assay: EMSA; 1 nM RNA, 640 nM CsrA; conditions: protein: recombinant; tags: N-terminal 6xHis removed by TEV protease; chain copies: 2; label: 3' biotin; two adjacent hairpins (mfold)
[3] = molecular target: T1, CsrA; assay: EMSA; 1 nM RNA, 640 nM CsrA; also no binding when mixed with CsrB-left; conditions: protein: recombinant; tags: N-terminal 6xHis removed by TEV protease; chain copies: 2; label: 3' biotin; hairpin (mfold)
[4] = molecular target: T1, CsrA; assay: EMSA; 1 nM RNA, 640 nM CsrA; also no binding when mixed with CsrB-right; conditions: protein: recombinant; tags: N-terminal 6xHis removed by TEV protease; chain copies: 2; label: 3' biotin; hairpin (mfold)
[5] = molecular target: T1, CsrA; assay: EMSA; 1 nM RNA; conditions: protein: recombinant; tags: N-terminal 6xHis removed by TEV protease; chain copies: 2; label: 5' biotin; partly folded, stem-loops predicted by mfold

T1 sequence (Q9KUH3 whole entry): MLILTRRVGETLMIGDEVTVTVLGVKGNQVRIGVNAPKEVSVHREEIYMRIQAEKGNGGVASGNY

UUAGAUGCAGGGAGCACCUUUUAGUAGCUGGAAUGCUGCGA (structured_RNA) [CsrB oligo]: binds [1].

UUAGAUGCAUAUAGCACCUUUUAGUAGCUAUAAUGCUGCGA (structured_RNA) [CsrB-mut (oligo-mut)]: no binding [2].

UUAGAUGCAUAUAGCACCUUUUAGUAGCUGGAAUGCUGCGA (structured_RNA) [mut-left]: no binding [2].

UUUUAGUAGCUGGAAUGCUGCGA (structured_RNA) [CsrB-right]: no binding [3].

UUAGAUGCAGGGAGCACCUUU (structured_RNA) [CsrB-left]: no binding [4].

B1: toxR 5'UTR (ssRNA)
RNA: GCAUUUUUAUCAAAGAAGAUAAAAAAACCAGUAAAGUCUGAGUGUUGGGACAGGGAGAUACUGGGACAUUAGAUGUUCGGAUUAGGACACAACUCAAAAGAGAUAUCGAUG
B1: binds [5].
